What was measured:
[1] = biological target: ADM (human or mouse, not stated for this row); assay: cell-based or functional assay
[2] = biological target: human recombinant adrenomedullin receptor (CRLR+RAMP3) (human)

Row | Maximal inhibition of ADM bioactivity (ADM-Bioassay) (%) [1] [%] | EC50 (read off the curve) [2] [nM] | Substance
1 | 0 |  | Non specific mouse IgG (antibody)
2 |  | 1 | human adrenomedullin (hADM 1-52) (peptide)
